Values of other authors, collected in article PMC4212800.

Target: CD4 D1-D2 (Homo sapiens) (UniProt P01730)

Kd: 0.0825 nM
Substance: Ibalizumab
